The values below come from the supplement of paper PMC9112550, “Optimization of the antimicrobial peptide Bac7 by deep mutational scanning” (BMC Biology, 2022).
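Also: peptides expressed intracellularly from a pBAD plasmid library in pooled LB shake-flask culture, induced with 0.3% L-arabinose, DNA abundance read by NGS, three biological replicates, DESeq2 with apeglm shrinkage.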

The subject of the data set is Escherichia coli TOP10. The data set can be described thus: shrunken log2 fold change of peptide-encoding DNA abundance (4.5 h post-induction vs induction); higher = less antimicrobial activity (less host growth inhibition). As to conditions: time post-induction: 4.5 h; library: site-saturation at positions 5, 18, 19, 20.
RRIRRRPPRLPRPRPRPEGQPRP: the “shrunken log2 fold change” value is 0.131.
In the case of RRIRRRPPRLPRPRPRPKCKPRP, the “shrunken log2 fold change” value was -0.0255.
RRIRTRPPRLPRPRPRPCAPPRP: the “shrunken log2 fold change” value was -0.142.
For the sequence RRIRQRPPRLPRPRPRPRTMPRP, the “shrunken log2 fold change” value is -0.232.
As for RRIRWRPPRLPRPRPRPQSEPRP, the “shrunken log2 fold change” value was -0.338.
For the sequence RRIRWRPPRLPRPRPRPMSQPRP, the “shrunken log2 fold change” value came out at 0.0791.
Regarding RRIRARPPRLPRPRPRPQRRPRP, the “shrunken log2 fold change” value is 0.366.
For RRIRYRPPRLPRPRPRPNDFPRP the value was -0.0506.
In the case of RRIRYRPPRLPRPRPRPTDTPRP, the “shrunken log2 fold change” value was -0.392.
As to RRIRRRPPRLPRPRPRPSYFPRP, the “shrunken log2 fold change” value was -0.395.
For RRIRQRPPRLPRPRPRPISEPRP, the “shrunken log2 fold change” value was 0.0446.
RRIRKRPPRLPRPRPRPKEAPRP: the “shrunken log2 fold change” value came to 0.334.
Consider RRIRHRPPRLPRPRPRPLYWPRP, for which the “shrunken log2 fold change” value was -0.276.
Turning to RRIRWRPPRLPRPRPRPHASPRP, the “shrunken log2 fold change” value stood at 0.134.
Take RRIRLRPPRLPRPRPRPMLNPRP: the “shrunken log2 fold change” value was -0.423.
With RRIRMRPPRLPRPRPRPGTEPRP, the “shrunken log2 fold change” value was 0.562.
In the case of RRIRRRPPRLPRPRPRPKCAPRP, the “shrunken log2 fold change” value came out at 0.884.
Consider RRIRVRPPRLPRPRPRPEIEPRP, for which the “shrunken log2 fold change” value came to 0.173.
Regarding RRIRSRPPRLPRPRPRPSLGPRP, the “shrunken log2 fold change” value stood at 0.319.
As to RRIRNRPPRLPRPRPRPGKEPRP, the “shrunken log2 fold change” value was -0.311.
RRIRERPPRLPRPRPRPMNRPRP: the “shrunken log2 fold change” value is -0.401.
The value for RRIRARPPRLPRPRPRPKMKPRP was 0.131; that for RRIRCRPPRLPRPRPRPNVNPRP was -0.461.
On to RRIRTRPPRLPRPRPRPHSAPRP, for which the “shrunken log2 fold change” value was determined as 0.205.
Take RRIRARPPRLPRPRPRPSNRPRP: the “shrunken log2 fold change” value was -0.457.
RRIRPRPPRLPRPRPRPAKWPRP: the “shrunken log2 fold change” value was 0.0878.
As to RRIRLRPPRLPRPRPRPFPNPRP, the “shrunken log2 fold change” value came out at 0.203.
Turning to RRIRFRPPRLPRPRPRPYRYPRP, the “shrunken log2 fold change” value was 0.0548.
RRIRKRPPRLPRPRPRPVIRPRP: the “shrunken log2 fold change” value was found to be 0.0302.
Turning to RRIRTRPPRLPRPRPRPRMFPRP, the “shrunken log2 fold change” value was -0.0163.
Turning to RRIRWRPPRLPRPRPRPLKPPRP, the “shrunken log2 fold change” value was 0.0915.
The value for RRIRLRPPRLPRPRPRPQFQPRP was -0.0476.
Turning to RRIRKRPPRLPRPRPRPLQLPRP, the “shrunken log2 fold change” value was 0.166.
Regarding RRIRERPPRLPRPRPRPDAEPRP, the “shrunken log2 fold change” value amounted to 0.36.
For RRIRWRPPRLPRPRPRPTQPPRP the value was 0.398; for RRIRVRPPRLPRPRPRPAMEPRP, -0.139; for RRIRQRPPRLPRPRPRPWHVPRP, -0.0656.
As to RRIRWRPPRLPRPRPRPLPWPRP, the “shrunken log2 fold change” value stood at 0.244.
With RRIRNRPPRLPRPRPRPSGTPRP, the “shrunken log2 fold change” value was -0.217.
For RRIRDRPPRLPRPRPRPEHTPRP the value was 0.225.
For the sequence RRIRKRPPRLPRPRPRPPWIPRP, the “shrunken log2 fold change” value was -0.0983.
The value for RRIRFRPPRLPRPRPRPNSPPRP was -0.462.
On to RRIRARPPRLPRPRPRPHAIPRP, for which the “shrunken log2 fold change” value worked out at 0.0503.
Regarding RRIRFRPPRLPRPRPRPPAWPRP, the “shrunken log2 fold change” value was 0.354.
For RRIRPRPPRLPRPRPRPKMNPRP the value was -0.273; for RRIRPRPPRLPRPRPRPYHFPRP, -0.245.
Take RRIRDRPPRLPRPRPRPPSHPRP: the “shrunken log2 fold change” value is -0.203.
As to RRIRMRPPRLPRPRPRPGYGPRP, the “shrunken log2 fold change” value came out at 0.148.
With RRIRWRPPRLPRPRPRPDFLPRP, the “shrunken log2 fold change” value was -0.221.
For RRIRKRPPRLPRPRPRPYECPRP, the “shrunken log2 fold change” value was -0.341.
For RRIRFRPPRLPRPRPRPICSPRP the value was -0.0437.
In the case of RRIRYRPPRLPRPRPRPHKVPRP, the “shrunken log2 fold change” value is -0.739.
RRIRSRPPRLPRPRPRPSLYPRP: the “shrunken log2 fold change” value is -0.432.
The value for RRIRTRPPRLPRPRPRPMMAPRP was 0.0689; that for RRIRDRPPRLPRPRPRPPDPPRP was 0.931.
The value for RRIRGRPPRLPRPRPRPRWVPRP was 0.289.
For the sequence RRIRPRPPRLPRPRPRPKRNPRP, the “shrunken log2 fold change” value amounted to 0.142.
Take RRIRMRPPRLPRPRPRPSCSPRP: the “shrunken log2 fold change” value was -0.0918.
For RRIRIRPPRLPRPRPRPGCVPRP the value was -0.00757; for RRIRERPPRLPRPRPRPWVLPRP, -0.0134; for RRIRCRPPRLPRPRPRPQREPRP, -0.0986.
On to RRIRMRPPRLPRPRPRPFMDPRP, for which the “shrunken log2 fold change” value was -0.119.
The value for RRIRARPPRLPRPRPRPHGLPRP was 0.268; that for RRIRWRPPRLPRPRPRPCLRPRP was 0.0809.
Take RRIRQRPPRLPRPRPRPVFVPRP: the “shrunken log2 fold change” value is -0.0727.
On to RRIRNRPPRLPRPRPRPFQMPRP, for which the “shrunken log2 fold change” value was -0.673.
For the sequence RRIRWRPPRLPRPRPRPWDPPRP, the “shrunken log2 fold change” value was -0.101.
On to RRIRFRPPRLPRPRPRPWFLPRP, for which the “shrunken log2 fold change” value is -1.15.
RRIRSRPPRLPRPRPRPKHCPRP: the “shrunken log2 fold change” value is -0.00217.
For the sequence RRIRFRPPRLPRPRPRPGKPPRP, the “shrunken log2 fold change” value was -0.0809.
On to RRIRDRPPRLPRPRPRPSSEPRP, for which the “shrunken log2 fold change” value stood at 0.186.
For RRIRPRPPRLPRPRPRPQHWPRP, the “shrunken log2 fold change” value was 0.265.
Regarding RRIRERPPRLPRPRPRPQSTPRP, the “shrunken log2 fold change” value was -0.319.
RRIRNRPPRLPRPRPRPDYTPRP: the “shrunken log2 fold change” value was found to be 0.115.
For RRIRARPPRLPRPRPRPGAYPRP the value was 0.249; for RRIRKRPPRLPRPRPRPGYFPRP, -0.0741.
Take RRIRFRPPRLPRPRPRPQGQPRP: the “shrunken log2 fold change” value is -0.103.
Regarding RRIRKRPPRLPRPRPRPFMHPRP, the “shrunken log2 fold change” value was found to be 0.0291.
The value for RRIRDRPPRLPRPRPRPLSLPRP was 0.0554.
For the sequence RRIRLRPPRLPRPRPRPRDAPRP, the “shrunken log2 fold change” value came to 0.469.
Turning to RRIRPRPPRLPRPRPRPFGMPRP, the “shrunken log2 fold change” value is -0.749.
On to RRIRHRPPRLPRPRPRPEIFPRP, for which the “shrunken log2 fold change” value was -0.0725.
Regarding RRIRNRPPRLPRPRPRPYGSPRP, the “shrunken log2 fold change” value was -0.0603.
Turning to RRIRWRPPRLPRPRPRPEAPPRP, the “shrunken log2 fold change” value stood at 1.01.
For RRIRHRPPRLPRPRPRPFPEPRP, the “shrunken log2 fold change” value was -0.104.
The value for RRIRFRPPRLPRPRPRPFYNPRP was -0.468; that for RRIRQRPPRLPRPRPRPQPHPRP was 0.158; that for RRIRNRPPRLPRPRPRPQCYPRP was -0.136.
The value for RRIRGRPPRLPRPRPRPPWMPRP was 0.373; that for RRIRPRPPRLPRPRPRPGNMPRP was -0.119; that for RRIRCRPPRLPRPRPRPPAKPRP was 0.741.
For the sequence RRIRSRPPRLPRPRPRPKHVPRP, the “shrunken log2 fold change” value was -0.183.
For RRIRYRPPRLPRPRPRPIPPPRP the value was -0.171; for RRIRYRPPRLPRPRPRPVVPPRP, -0.0502; for RRIRIRPPRLPRPRPRPQCLPRP, -0.47.
With RRIRRRPPRLPRPRPRPLYAPRP, the “shrunken log2 fold change” value was 0.0633.
With RRIRGRPPRLPRPRPRPLILPRP, the “shrunken log2 fold change” value was 0.203.
As to RRIRTRPPRLPRPRPRPAQVPRP, the “shrunken log2 fold change” value was -0.112.
In the case of RRIRQRPPRLPRPRPRPIWHPRP, the “shrunken log2 fold change” value is -0.204.
As to RRIRMRPPRLPRPRPRPVCVPRP, the “shrunken log2 fold change” value is 0.241.
The value for RRIRPRPPRLPRPRPRPVWCPRP was 0.0172; that for RRIRPRPPRLPRPRPRPSGAPRP was 0.345.
For the sequence RRIRGRPPRLPRPRPRPGATPRP, the “shrunken log2 fold change” value was 1.39.
With RRIRDRPPRLPRPRPRPTFGPRP, the “shrunken log2 fold change” value is 0.228.
The value for RRIRIRPPRLPRPRPRPEWQPRP was 0.118; that for RRIRRRPPRLPRPRPRPFNLPRP was -0.109.
Turning to RRIRERPPRLPRPRPRPFYGPRP, the “shrunken log2 fold change” value amounted to 0.015.
Consider RRIRHRPPRLPRPRPRPFSTPRP, for which the “shrunken log2 fold change” value is -0.304.
As to RRIRNRPPRLPRPRPRPVPWPRP, the “shrunken log2 fold change” value was found to be 0.23.
For the sequence RRIRMRPPRLPRPRPRPNKMPRP, the “shrunken log2 fold change” value is -0.134.
With RRIRPRPPRLPRPRPRPPFPPRP, the “shrunken log2 fold change” value was found to be 0.454.
Turning to RRIRARPPRLPRPRPRPMSHPRP, the “shrunken log2 fold change” value amounted to 0.148.
The value for RRIRKRPPRLPRPRPRPASTPRP was 0.53; that for RRIRPRPPRLPRPRPRPMFRPRP was -0.119.
The value for RRIRLRPPRLPRPRPRPAGSPRP was 0.268; that for RRIRFRPPRLPRPRPRPGEHPRP was -0.0294.
RRIRLRPPRLPRPRPRPHIAPRP: the “shrunken log2 fold change” value was -0.205.
In the case of RRIRYRPPRLPRPRPRPYFIPRP, the “shrunken log2 fold change” value is -0.629.
Consider RRIRIRPPRLPRPRPRPEHWPRP, for which the “shrunken log2 fold change” value worked out at 0.168.
As for RRIRRRPPRLPRPRPRPWCAPRP, the “shrunken log2 fold change” value stood at 0.419.
Take RRIRKRPPRLPRPRPRPHIGPRP: the “shrunken log2 fold change” value is -0.0664.
For the sequence RRIRKRPPRLPRPRPRPTMDPRP, the “shrunken log2 fold change” value stood at 0.0288.
Take RRIRERPPRLPRPRPRPNRLPRP: the “shrunken log2 fold change” value is -0.0671.
For RRIRCRPPRLPRPRPRPHQWPRP the value was 0.321.
As for RRIRTRPPRLPRPRPRPNQFPRP, the “shrunken log2 fold change” value was -0.205.
